Consider one substance from patent US20120244131.

In this series the test system is T1, SC_RAG single-chain meganuclease (I-CreI derived) (artificial sequence).
T1 sequence: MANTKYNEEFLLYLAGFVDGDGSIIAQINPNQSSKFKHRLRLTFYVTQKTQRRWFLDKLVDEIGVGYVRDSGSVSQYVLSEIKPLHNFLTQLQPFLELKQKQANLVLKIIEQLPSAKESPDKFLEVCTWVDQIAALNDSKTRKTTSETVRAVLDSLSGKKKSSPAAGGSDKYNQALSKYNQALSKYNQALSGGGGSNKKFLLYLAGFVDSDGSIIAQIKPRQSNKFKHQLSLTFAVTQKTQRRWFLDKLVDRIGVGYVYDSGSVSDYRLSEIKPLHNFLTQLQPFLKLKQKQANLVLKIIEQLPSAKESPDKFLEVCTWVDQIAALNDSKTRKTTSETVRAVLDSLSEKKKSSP
Nature of the series: cell_activity. The note with it: endogenous locus in 293H, siRNA control AS, deep sequencing, +/-0.13.

“endogenous human RAG1 locus target of SC_RAG” gave an activity (% NHEJ mutagenesis) of 0.66.
